Source: PMC9482634, “Structural mechanism of tapasin-mediated MHC-I peptide loading in antigen presentation” (Nature Communications, 2022)
Changes are numbered by the printed parent chain.

B1: PaSta2 Fab (anti-tapasin monoclonal antibody PaSta2) (Fab, V domains shown)
VH: QVQLQQSGAELVRPGTSVKMSCKAAGYTFTNYWIGWIKQRPGHGLEWIGDIYPGGGYTNYNEKFKVKATLTADTSSVTAYMQLSSLTSEDSAIYYCTREGNYGFAYWGQGTLVTVSA
VL: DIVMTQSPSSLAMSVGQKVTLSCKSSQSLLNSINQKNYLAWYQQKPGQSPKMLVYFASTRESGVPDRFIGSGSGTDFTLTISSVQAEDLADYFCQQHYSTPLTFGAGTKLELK
notes: heavy chain of the Fab in PDB 7TUG and 7TUH (ends after the second cysteine of the hinge, then His6); light chain of the Fab in PDB 7TUG and 7TUH; also called Pt2; Pt2H; source: Expi293F, transfected, purified from culture supernatant (TALON, SEC)
B2: Fab fragment of the anti-tapasin monoclonal antibody PaSta2 (Fab, V domains shown)
VH: B1 VH
VL: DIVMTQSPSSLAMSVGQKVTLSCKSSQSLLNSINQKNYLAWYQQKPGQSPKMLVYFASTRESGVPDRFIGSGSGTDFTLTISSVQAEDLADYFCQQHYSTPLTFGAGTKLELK
notes: H chain of PaSta2 in PDB 7TUG and 7TUH (deposited here); the Fab H chain ends after the second cysteine in the hinge region, followed by the 6X HIS tag; L chain of PaSta2 in PDB 7TUG and 7TUH (deposited here); also called PaSta2 (Fab); Pt2; source: Expi293F cells, transfected, purified from culture supernatants (TALON, SEC)
B3: human tapasin lumenal domain (Gly1-Glu381), biotinylated at its C-terminal BirA sequence (domain or fragment, UniProt O15533 21-401, looked up)
chain: GPAVIECWFVEDASGKGLAKRPGALLLRQGPGEPPPRPDLDPELYLSVHDPAGALQAAFRRYPRGAPAPHCEMSRFVPLPASAKWASGLTPAQNCPRALDGAWLMVSISSPVLSLSSLLRPQPEPQQEPVLITMATVVLTVLTHTPAPRVRLGQDALLDLSFAYMPPTSEAASSLAPGPPPFGLEWRRQHLGKGHLLLAATPGLNGQMPAAQEGAVAFAAWDDDEPWGPWTGNGTFWLPTVQPFQEGTYLATIHLPYLQGQVTLELAVYKPPKVSLMPATLARAAPGEAPPELLCLVSHFYPSGGLEVEWELRGGPGGRSQKAEGQRWLSALRHHSDGSVSLSGHLQPPPVTTEQHGARYACRIHHPSLPASGRSAEVTLE
modifications: biotin at the C-terminal BirA sequence
notes: Tapasin as captured on the streptavidin chip for SPR; also called biotinylated tapasin; source: Drosophila S2 cells, purified from the culture media (chelate agarose, SEC, anion exchange)
B4: PaSta1 Fab (anti-tapasin monoclonal antibody PaSta1) (Fab, V domains shown)
VH: DVQLQESGPGLVIPSQSLSLTCTVTGYSITTDYAWNWIRQFPGNRLEWMGYISSSGVTVYNPSLKSRISITRDTSKNQFFLQLISVTTEDTATYYCARRGYYRYDSIDYWGQGTTLTVSS
VL: QIVLSQSPAILSASPGEKVTMTCRATSSVSYIHWYQQKPGSSPKPWIYATSSLTSGVPVRFSGSGSGTSYSLTISRVEAEDAATYYCQQWSSNPPTFGGGTKLEIK
notes: heavy chain of the Fab in PDB 7TUF (ends after the second cysteine of the hinge, then His6); light chain of the Fab in PDB 7TUF; also called Pt1; Pt1H; source: Expi293F, transfected, purified from culture supernatant (TALON, SEC)
B5: Fab fragment of the anti-tapasin monoclonal antibody PaSta1 (Fab, V domains shown)
VH: B4 VH
VL: B4 VL
notes: H chain of PaSta1 in PDB 7TUF (deposited here); the Fab H chain ends after the second cysteine in the hinge region, followed by the 6X HIS tag; L chain of PaSta1 in PDB 7TUF (deposited here); The L chain search model had VL and Cκ; also called PaSta1 (Fab); Pt1; source: Expi293F cells, transfected, purified from culture supernatants (TALON, SEC)

How the values were obtained:
Conditions in all cases: both partners purified
[1] = molecular target: T1, human tapasin, lumenal domain (Gly1-Glu381), as used in the SPR experiments with the PaSta Fabs (Homo sapiens (human)); assay: SPR; PaSta2 Fab (panel c) or PaSta1 Fab (panel d) immobilised on a CM5 chip, tapasin captured on it, the other Fab injected at 62.5 to 4000 nM; fit to a 1:1 binding model (BiaEval 3.1); 25 °C, 10 mM HEPES pH 7.4, 150 mM NaCl, 3 mM EDTA, 0.05% Surfactant P20, 30 µL/min
T1 construct: human tapasin, lumenal domain, residues Gly1 to Glu381; the construct encodes the signal peptide too, the protein is secreted; for the SPR with the Fabs nothing is said; also called TPN; source: Drosophila S2 cells, purified from culture medium (chelate agarose, SEC, anion exchange)
T1 chain: B3 chain with T240R

[2] = molecular target: T2, human tapasin lumenal domain (Gly1-Glu381), BirA and 6X His sequences removed with 3C protease (human, UniProt O15533); assay: crystal structure; tapasin–PaSta2 Fab complex, PDB 7TUG, 3.9 Å; crystals grown in 17% PEG 10000, 0.1 M Bis-Tris, pH 5.5, 0.1 M Am acetate
T2 construct: Residues of the 3C site may remain at the C-terminus after cleavage; source: Drosophila S2 cells, purified from the culture media (chelate agarose, SEC, anion exchange), treated with 3C protease; not shown: 6X HIS, C-terminal, cleaved

[3] = molecular target: T3, human tapasin lumenal domain (Gly1-Glu381), state of the C-terminal tags not stated (human, UniProt O15533); assay: SPR; Fab of PaSta1 or PaSta2 covalently coupled onto CM5 chips (about 200 RU); tapasin 0.06 µM to 4 µM injected; 25 °C; 10 mM HEPES pH 7.4, 150 mM NaCl, 3 mM EDTA, 0.05% Surfactant P20; 30 µL/min; 1:1 binding model
T3 construct: Tapasin as injected over the Fab surfaces in SPR and as added in the NMR experiments; source: Drosophila S2 cells, purified from the culture media (chelate agarose, SEC, anion exchange)

[4] = molecular target: parental HLA-B*44:05 refolded with hβ2m and the peptide … (human | ); assay: SPR; biotinylated tapasin captured (200 RU) on a streptavidin chip; MHC-I offered in graded concentrations (15.6 nM to 500 nM for B44:02–9mer and B44:05-T73C–6mer, 1 µM to 16 µM for B44:05–9mer); 25 °C; 10 mM HEPES pH 7.4, 150 mM NaCl, 3 mM EDTA, 0.05% Surfactant P20; 30 µL/min; global fit to a 1:1 binding model; n = 3
[5] = molecular target: T2, human tapasin lumenal domain …; assay: crystal structure; tapasin–PaSta1 Fab complex, PDB 7TUF, 2.8 Å; crystals grown in 10% PEG 4000, 0.1 M Hepes, pH 7.5

| Kd [1] | binding result [3] | further results | Binder |
| --- | --- | --- | --- |
| 1.6 nM | – | – | B1 |
| – | binds | binding result [2]: binds | B2 |
| – | – | Kd [4]: 1310 nM | B3 |
| 1.1 nM | – | – | B4 |
| – | binds | binding result [5]: binds | B5 |
